Results published in US20190241654A1 (published 2019).
Where “and” joins values, the source holds several entries; their conditions need not be identical. Equal entries are not always repeated.

Legend:
CD47 on CCRF-CEM cells [1] = target: T1, CD47 on CCRF-CEM cells (human, UniProt Q08722 19-323); assay: cell-based or functional assay
CD47 on CCRF-CEM cells [2] = target: T1, CD47 on CCRF-CEM cells; assay: flow cytometry on antibody-opsonized CCRF-CEM cells, anti-human Alexa 647 secondary, median fluorescence, sigmoidal fit
Procedure: (§1) Phagocytosis was assayed by serum starving the macrophages in incomplete AIM V media for two hours. During this incubation period, target cells (CCRF-CEM) from two donors (donor 1 and donor 2) were labeled with CSFE (Invitrogen, #C34554) at […] for 15 minutes at room temperature. Cells were rinsed twice with PBS (Hyclone, #SH30028.02) and resuspended at 8×10⁵/mL in AIM V media. Antibody dilutions were prepared at 0.01 ug/ml to 10 ug/ml in half log dilutions and then incubated with the target cell line for 10 minutes at room temperature (a small portion is retained for flow cytometric analysis/cell binding), after which 100 μL of target cell/antibody suspension was added to the macrophage plates. Samples were treated in triplicate and with appropriate isotype controls.
(§2) Samples were incubated for 30 minutes at room temperature, rinsed 2× and then resuspended in FACS buffer and analyzed on the Attune. The EC50 values refer to the concentration that gives half the maximum binding measured as median fluorescent intensity, and was determined by non-linear fit of a sigmoidal dose response within the GraphPad Prism software.

CD47 on CCRF-CEM cells [3] = target: T1, CD47 on CCRF-CEM cells; assay: flow cytometry on antibody-opsonized CCRF-CEM cells, anti-human Alexa 647 secondary, median fluorescence, sigmoidal fit; Donor 1
Procedure: as §1, §2

CD47 on CCRF-CEM cells [4] = target: T1, CD47 on CCRF-CEM cells; assay: flow cytometry on antibody-opsonized CCRF-CEM cells, anti-human Alexa 647 secondary, median fluorescence, sigmoidal fit; Donor 2
Procedure: as §1, §2

T1 sequence (Q08722 19-323): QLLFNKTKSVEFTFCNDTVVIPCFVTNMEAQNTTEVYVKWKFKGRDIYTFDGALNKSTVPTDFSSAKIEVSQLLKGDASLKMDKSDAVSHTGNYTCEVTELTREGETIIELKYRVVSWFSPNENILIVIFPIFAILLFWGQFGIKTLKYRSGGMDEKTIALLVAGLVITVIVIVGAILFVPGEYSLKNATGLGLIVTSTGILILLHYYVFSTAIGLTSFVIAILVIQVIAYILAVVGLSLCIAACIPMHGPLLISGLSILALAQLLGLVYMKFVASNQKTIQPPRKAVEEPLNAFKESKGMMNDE

Phagocytosis EC50 (ug/mL), Donor 1 (CD47 on CCRF-CEM cells [1])	Phagocytosis EC50 (ug/mL), Donor 2 (CD47 on CCRF-CEM cells [1])	EC50 (CD47 on CCRF-CEM cells [2])	EC50 (CD47 on CCRF-CEM cells [3]) [µg/mL]	EC50 (CD47 on CCRF-CEM cells [4]) [µg/mL]	Binder
0.44 µg/mL and 0.19 µg/mL	0.71 µg/mL and 0.24 µg/mL	0.012 µg/mL	0.04	0.07	Ab1119/Ab480 (LC Ab1119, HC Ab480) anti-CD47 antibody (antibody, V domains shown, Variant of AbParental) VH: QMQLVQSGAEVKKPGSSVKVSCKASGFNIKDYYLHWVRQAPGKGLEWMGWIDPDQGDTEYAQKFQGRVTITRDRSTSTAYMELRSLRAEDTAVYYCNAAYGSSSYPMDYWGQGTLVTVSS VL: NIQMTQSPSSLSASVGDRVTITCRASQDIHRYLSWFQQKPGKVPKHLIYRANRLVSGVPSRFSGSGSGTEFTLTISSLQPEDFATYYCLQYDEFPYTFGGGTKVEIK
0.38 µg/mL	0.13 µg/mL	0.014 µg/mL			AbParental, parental anti-CD47 antibody (antibody, human IgG4 S228P, kappa, V domains shown, Parental anti-CD47 antibody, described in WO 2013/119714 A1; also called Parental LC-HC; parental antibody) VH: QMQLVQSGAEVKKTGSSVKVSCKASGFNIKDYYLHWVRQAPGQALEWMGWIDPDQGDTEYAQKFQDRVTITRDRSMSTAYMELSSLRSEDTAMYYCNAAYGSSSYPMDYWGQGTTVTVSS VL: NIQMTQSPSAMSASVGDRVTITCKASQDIHRYLSWFQQKPGKVPKHLIYRANRLVSGVPSRFSGSGSGTEFTLTISSLQPEDFATYYCLQYDEFPYTFGGGTKVEIKR
	0.52 µg/mL and 0.21 µg/mL	0.011 µg/mL and 0.014 µg/mL			Ab1119/Ab387 (LC Ab1119, HC Ab387) anti-CD47 antibody (antibody, V domains shown, Variant of AbParental) VH: QMQLVQSGAEVKKPGSSVKVSCKASGFNIKDYYLHWVRQAPGKGLEWMGWIDPDQGDTEYAQKFQGRVTITRDRSTSTAYMELRSLRSEDTAVYYCNAAYGSSSYPMDYWGQGTLVTVSS VL: NIQMTQSPSSLSASVGDRVTITCRASQDIHRYLSWFQQKPGKVPKHLIYRANRLVSGVPSRFSGSGSGTEFTLTISSLQPEDFATYYCLQYDEFPYTFGGGTKVEIK
0.36 µg/mL and 0.31 µg/mL and 0.14 µg/mL		0.014 µg/mL and 0.035 µg/mL	0.06	0.16	Ab1119/Ab356 (LC Ab1119, HC Ab356) anti-CD47 antibody (antibody, V domains shown, Variant of AbParental) VH: QMQLVQSGAEVKKPGSSVKVSCKASGFNIKDYYLHWVRQAPGKGLEWMGWIDPDQGDTEYAQKFQGRVTITRDRSTSTAYMELRSLRAEDTAVYYCNAAYGSSSYPMDYWGQGTTVTVSS VL: NIQMTQSPSSLSASVGDRVTITCRASQDIHRYLSWFQQKPGKVPKHLIYRANRLVSGVPSRFSGSGSGTEFTLTISSLQPEDFATYYCLQYDEFPYTFGGGTKVEIK
